Measured values published in the supplement of paper PMC10724198.
± gives the standard deviation of the averaged measurements.

Tests used:
Saccharomyces cerevisiae [1] = test: protein stability index of tFT-peptide fusion (C-terminal peptide) (PSI (0-1 scale)); higher = more stable (slower turnover)
Method: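 MPS profiling in S. cerevisiae of the tFT-X12 degron library: putative degron peptides plus stable controls, 12 aa, fused to the C-terminus of a sfGFP-mCherry timer. Cells are FACS-sorted into 8 mCherry/sfGFP bins and deep-sequenced. PSI runs from 0 (unstable) to 1 (stable). Backgrounds are wild type, das1Δ and doa10Δ at 30 °C, and wild type, das1Δ, cdc34-1 and cdc53-1 at 37 °C; 2-3 technical replicates each.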

Saccharomyces cerevisiae [2] = test: as above; details: genetic background: wild type; temperature: 30 C
[3] = genetic background: cdc34-1, temperature: 37 C
[4] = genetic background: cdc53-1, temperature: 37 C
[5] = genetic background: das1 deletion, temperature: 30 C
[6] = genetic background: das1 deletion, temperature: 37 C
[7] = genetic background: doa10 deletion, temperature: 30 C
[8] = genetic background: wild type, temperature: 30 C
[9] = genetic background: wild type, temperature: 37 C
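Note: PSI is a weighted mean of sequencing reads over stability bins, variants kept only with over 10 reads, mCherry proximal and sfGFP distal, peptide attached via GGGS linker.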

## FLVFRPPALFLR
Saccharomyces cerevisiae [1]; [3]
  protein stability index: 0.0932 ± 0.018
Saccharomyces cerevisiae [1]; [4]
  protein stability index: 0.0985 ± 0.0088
Saccharomyces cerevisiae [1]; [5]
  protein stability index: 0.198 ± 0.024
Saccharomyces cerevisiae [1]; [6]
  protein stability index: 0.268 ± 0.013
Saccharomyces cerevisiae [1]; [7]
  protein stability index: 0.611 ± 0.01
Saccharomyces cerevisiae [1]; [8]
  protein stability index: 0.22 ± 0.017
Saccharomyces cerevisiae [1]; [9]
  protein stability index: 0.219 ± 0.0054
Saccharomyces cerevisiae [2]
  protein stability index: 0.218 ± 0.18

## FLVVCGLLSWVW
Saccharomyces cerevisiae [1]; [3]
  protein stability index: 0.324 ± 0.00073
Saccharomyces cerevisiae [1]; [4]
  protein stability index: 0.407 ± 0.029
Saccharomyces cerevisiae [1]; [5]
  protein stability index: 0.263 ± 0.039
Saccharomyces cerevisiae [1]; [6]
  protein stability index: 0.455 ± 0.015
Saccharomyces cerevisiae [1]; [7]
  protein stability index: 0.232 ± 0.0053
Saccharomyces cerevisiae [1]; [8]
  protein stability index: 0.28 ± 0.032
Saccharomyces cerevisiae [1]; [9]
  protein stability index: 0.4291 ± 0.003
Saccharomyces cerevisiae [2]
  protein stability index: 0.348 ± 0.05

## FLVVSSVGFPLL
Saccharomyces cerevisiae [1]; [3]
  protein stability index: 0.676 ± 0.017
Saccharomyces cerevisiae [1]; [4]
  protein stability index: 0.73 ± 0.0085
Saccharomyces cerevisiae [1]; [5]
  protein stability index: 0.626 ± 0.018
Saccharomyces cerevisiae [1]; [6]
  protein stability index: 0.729 ± 0.027
Saccharomyces cerevisiae [1]; [7]
  protein stability index: 0.618 ± 0.011
Saccharomyces cerevisiae [1]; [8]
  protein stability index: 0.628 ± 0.014
Saccharomyces cerevisiae [1]; [9]
  protein stability index: 0.714 ± 0.014
Saccharomyces cerevisiae [2]
  protein stability index: 0.467 ± 0.027

## FLWLCLLSLFFR
Saccharomyces cerevisiae [1]; [3]
  protein stability index: 0.454 ± 0.069
Saccharomyces cerevisiae [1]; [4]
  protein stability index: 0.383 ± 0.035
Saccharomyces cerevisiae [1]; [5]
  protein stability index: 0.436 ± 0.018
Saccharomyces cerevisiae [1]; [6]
  protein stability index: 0.548 ± 0.017
Saccharomyces cerevisiae [1]; [7]
  protein stability index: 0.547 ± 0.01
Saccharomyces cerevisiae [1]; [8]
  protein stability index: 0.434 ± 0.0099
Saccharomyces cerevisiae [1]; [9]
  protein stability index: 0.498 ± 0.031
Saccharomyces cerevisiae [2]
  protein stability index: 0.481 ± 0.018

## FLYFLLQFLCSG
Saccharomyces cerevisiae [1]; [3]
  protein stability index: 0.517 ± 0.04
Saccharomyces cerevisiae [1]; [4]
  protein stability index: 0.544 ± 0.0046
Saccharomyces cerevisiae [1]; [5]
  protein stability index: 0.418 ± 0.034
Saccharomyces cerevisiae [1]; [6]
  protein stability index: 0.597 ± 0.046
Saccharomyces cerevisiae [1]; [7]
  protein stability index: 0.406 ± 0.0045
Saccharomyces cerevisiae [1]; [8]
  protein stability index: 0.421 ± 0.029
Saccharomyces cerevisiae [1]; [9]
  protein stability index: 0.579 ± 0.034
Saccharomyces cerevisiae [2]
  protein stability index: 0.516 ± 0.034

## FMCFVLPVFVLV
Saccharomyces cerevisiae [1]; [3]
  protein stability index: 0.247 ± 0.013
Saccharomyces cerevisiae [1]; [4]
  protein stability index: 0.282 ± 0.034
Saccharomyces cerevisiae [1]; [5]
  protein stability index: 0.222 ± 0.029
Saccharomyces cerevisiae [1]; [6]
  protein stability index: 0.389 ± 0.0074
Saccharomyces cerevisiae [1]; [7]
  protein stability index: 0.196 ± 0.018
Saccharomyces cerevisiae [1]; [8]
  protein stability index: 0.212 ± 0.017
Saccharomyces cerevisiae [1]; [9]
  protein stability index: 0.344 ± 0.014
Saccharomyces cerevisiae [2]
  protein stability index: 0.306 ± 0.024

## FNFFFSSVFLLV
Saccharomyces cerevisiae [1]; [3]
  protein stability index: 0.3037 ± 0.0011
Saccharomyces cerevisiae [1]; [4]
  protein stability index: 0.252 ± 0.025
Saccharomyces cerevisiae [1]; [5]
  protein stability index: 0.342 ± 0.048
Saccharomyces cerevisiae [1]; [6]
  protein stability index: 0.436 ± 0.051
Saccharomyces cerevisiae [1]; [7]
  protein stability index: 0.3 ± 0.022
Saccharomyces cerevisiae [1]; [8]
  protein stability index: 0.19 ± 0.02
Saccharomyces cerevisiae [1]; [9]
  protein stability index: 0.334 ± 0.029
Saccharomyces cerevisiae [2]
  protein stability index: 0.299 ± 0.015

## FPFFFLSILSAV
Saccharomyces cerevisiae [1]; [3]
  protein stability index: 0.262 ± 0.015
Saccharomyces cerevisiae [1]; [4]
  protein stability index: 0.2944 ± 0.0028
Saccharomyces cerevisiae [1]; [5]
  protein stability index: 0.256 ± 0.037
Saccharomyces cerevisiae [1]; [6]
  protein stability index: 0.383 ± 0.0098
Saccharomyces cerevisiae [1]; [7]
  protein stability index: 0.11 ± 0.0067
Saccharomyces cerevisiae [1]; [8]
  protein stability index: 0.122 ± 0.023
Saccharomyces cerevisiae [1]; [9]
  protein stability index: 0.168 ± 0.0078
Saccharomyces cerevisiae [2]
  protein stability index: 0.177 ± 0.019

## FPFVYRSVLLFF
Saccharomyces cerevisiae [1]; [3]
  protein stability index: 0.392 ± 0.052
Saccharomyces cerevisiae [1]; [4]
  protein stability index: 0.484 ± 0.012
Saccharomyces cerevisiae [1]; [5]
  protein stability index: 0.411 ± 0.033
Saccharomyces cerevisiae [1]; [6]
  protein stability index: 0.577 ± 0.011
Saccharomyces cerevisiae [1]; [7]
  protein stability index: 0.1059 ± 0.00044
Saccharomyces cerevisiae [1]; [8]
  protein stability index: 0.0991 ± 0.021
Saccharomyces cerevisiae [1]; [9]
  protein stability index: 0.216 ± 0.029
Saccharomyces cerevisiae [2]
  protein stability index: 0.177 ± 0.089

## FPPRLIPLLARS
Saccharomyces cerevisiae [1]; [3]
  protein stability index: 0.442 ± 0.028
Saccharomyces cerevisiae [1]; [4]
  protein stability index: 0.4556 ± 0.00087
Saccharomyces cerevisiae [1]; [5]
  protein stability index: 0.31 ± 0.044
Saccharomyces cerevisiae [1]; [6]
  protein stability index: 0.511 ± 0.0063
Saccharomyces cerevisiae [1]; [7]
  protein stability index: 0.2401 ± 0.0016
Saccharomyces cerevisiae [1]; [8]
  protein stability index: 0.291 ± 0.025
Saccharomyces cerevisiae [1]; [9]
  protein stability index: 0.4713 ± 0.0013
Saccharomyces cerevisiae [2]
  protein stability index: 0.372 ± 0.02

## FPSCYIWEVEVM
Saccharomyces cerevisiae [1]; [3]
  protein stability index: 0.403 ± 0.049
Saccharomyces cerevisiae [1]; [4]
  protein stability index: 0.403 ± 0.021
Saccharomyces cerevisiae [1]; [5]
  protein stability index: 0.32 ± 0.039
Saccharomyces cerevisiae [1]; [6]
  protein stability index: 0.484 ± 0.038
Saccharomyces cerevisiae [1]; [7]
  protein stability index: 0.268 ± 0.0021
Saccharomyces cerevisiae [1]; [8]
  protein stability index: 0.333 ± 0.023
Saccharomyces cerevisiae [1]; [9]
  protein stability index: 0.436 ± 0.0047
Saccharomyces cerevisiae [2]
  protein stability index: 0.442 ± 0.037

## FPSLLFALFLFI
Saccharomyces cerevisiae [1]; [3]
  protein stability index: 0.481 ± 0.046
Saccharomyces cerevisiae [1]; [4]
  protein stability index: 0.502 ± 0.0056
Saccharomyces cerevisiae [1]; [5]
  protein stability index: 0.436 ± 0.027
Saccharomyces cerevisiae [1]; [6]
  protein stability index: 0.5271 ± 0.00065
Saccharomyces cerevisiae [1]; [7]
  protein stability index: 0.4401 ± 0.0013
Saccharomyces cerevisiae [1]; [8]
  protein stability index: 0.415 ± 0.036
Saccharomyces cerevisiae [1]; [9]
  protein stability index: 0.501 ± 0.018
Saccharomyces cerevisiae [2]
  protein stability index: 0.475 ± 0.017

## FPVSSRSFSFIP
Saccharomyces cerevisiae [1]; [3]
  protein stability index: 0.66 ± 0.051
Saccharomyces cerevisiae [1]; [4]
  protein stability index: 0.7594 ± 0.0028
Saccharomyces cerevisiae [1]; [5]
  protein stability index: 0.666 ± 0.02
Saccharomyces cerevisiae [1]; [6]
  protein stability index: 0.732 ± 0.019
Saccharomyces cerevisiae [1]; [7]
  protein stability index: 0.627 ± 0.02
Saccharomyces cerevisiae [1]; [8]
  protein stability index: 0.656 ± 0.028
Saccharomyces cerevisiae [1]; [9]
  protein stability index: 0.717 ± 0.053
Saccharomyces cerevisiae [2]
  protein stability index: 0.727 ± 0.046

## FRFYCGLVIANV
Saccharomyces cerevisiae [1]; [3]
  protein stability index: 0.455 ± 0.016
Saccharomyces cerevisiae [1]; [4]
  protein stability index: 0.484 ± 0.029
Saccharomyces cerevisiae [1]; [5]
  protein stability index: 0.385 ± 0.019
Saccharomyces cerevisiae [1]; [6]
  protein stability index: 0.51729 ± 0.00021
Saccharomyces cerevisiae [1]; [7]
  protein stability index: 0.359 ± 0.03
Saccharomyces cerevisiae [1]; [8]
  protein stability index: 0.377 ± 0.031
Saccharomyces cerevisiae [1]; [9]
  protein stability index: 0.531 ± 0.039
Saccharomyces cerevisiae [2]
  protein stability index: 0.483 ± 0.027

## FSCLCLCVATSG
Saccharomyces cerevisiae [1]; [3]
  protein stability index: 0.348 ± 0.031
Saccharomyces cerevisiae [1]; [4]
  protein stability index: 0.396 ± 0.056
Saccharomyces cerevisiae [1]; [5]
  protein stability index: 0.221 ± 0.019
Saccharomyces cerevisiae [1]; [6]
  protein stability index: 0.379 ± 0.015
Saccharomyces cerevisiae [1]; [7]
  protein stability index: 0.237 ± 0.031
Saccharomyces cerevisiae [1]; [8]
  protein stability index: 0.219 ± 0.023
Saccharomyces cerevisiae [1]; [9]
  protein stability index: 0.355 ± 0.03
Saccharomyces cerevisiae [2]
  protein stability index: 0.23 ± 0.013

## FSFSAFARFLVI
Saccharomyces cerevisiae [1]; [3]
  protein stability index: 0.618 ± 0.048
Saccharomyces cerevisiae [1]; [4]
  protein stability index: 0.704 ± 0.02
Saccharomyces cerevisiae [1]; [5]
  protein stability index: 0.604 ± 0.033
Saccharomyces cerevisiae [1]; [6]
  protein stability index: 0.6999 ± 0.0034
Saccharomyces cerevisiae [1]; [7]
  protein stability index: 0.243 ± 0.0081
Saccharomyces cerevisiae [1]; [8]
  protein stability index: 0.255 ± 0.025
Saccharomyces cerevisiae [1]; [9]
  protein stability index: 0.378 ± 0.018
Saccharomyces cerevisiae [2]
  protein stability index: 0.358 ± 0.036

## FSFSCFFFVLFV
Saccharomyces cerevisiae [1]; [3]
  protein stability index: 0.0608 ± 0.036
Saccharomyces cerevisiae [1]; [4]
  protein stability index: 0.0424 ± 0.002
Saccharomyces cerevisiae [1]; [5]
  protein stability index: 0.0913 ± 0.018
Saccharomyces cerevisiae [1]; [6]
  protein stability index: 0.11 ± 0.022
Saccharomyces cerevisiae [1]; [7]
  protein stability index: 0.265 ± 0.0023
Saccharomyces cerevisiae [1]; [8]
  protein stability index: 0.0703 ± 0.038
Saccharomyces cerevisiae [1]; [9]
  protein stability index: 0.0898 ± 0.017
Saccharomyces cerevisiae [2]
  protein stability index: 0.127 ± 0.0048

## FSFSFYFALASF
Saccharomyces cerevisiae [1]; [3]
  protein stability index: 0.474 ± 0.047
Saccharomyces cerevisiae [1]; [4]
  protein stability index: 0.514 ± 0.0099
Saccharomyces cerevisiae [1]; [5]
  protein stability index: 0.425 ± 0.018
Saccharomyces cerevisiae [1]; [6]
  protein stability index: 0.495 ± 0.011
Saccharomyces cerevisiae [1]; [7]
  protein stability index: 0.41 ± 0.0077
Saccharomyces cerevisiae [1]; [8]
  protein stability index: 0.422 ± 0.0075
Saccharomyces cerevisiae [1]; [9]
  protein stability index: 0.483 ± 0.034
Saccharomyces cerevisiae [2]
  protein stability index: 0.4603 ± 0.00095

## FTFLFPLRLLPL
Saccharomyces cerevisiae [1]; [3]
  protein stability index: 0.305 ± 0.051
Saccharomyces cerevisiae [1]; [4]
  protein stability index: 0.295 ± 0.025
Saccharomyces cerevisiae [1]; [5]
  protein stability index: 0.377 ± 0.036
Saccharomyces cerevisiae [1]; [6]
  protein stability index: 0.478 ± 0.015
Saccharomyces cerevisiae [1]; [7]
  protein stability index: 0.586 ± 0.033
Saccharomyces cerevisiae [1]; [8]
  protein stability index: 0.374 ± 0.009
Saccharomyces cerevisiae [1]; [9]
  protein stability index: 0.442 ± 0.011
Saccharomyces cerevisiae [2]
  protein stability index: 0.3469 ± 0.00084
